Experimental data published in US20170183403A1 (UNIVERSIT T Z RICH, published 2017).

Legend:
human interleukin-2 = target: T1, human interleukin-2 (human, UniProt P60568 21-153); test: SPR, antibody amine-coupled on GLM chip, hIL-2 in solution
T1 construct: also called hIL-2; human IL-2
Procedure: For this experiment an amine coupling GLM chip was used. The activation of the carboxylic acid groups in the chip was done using a mix of 1-ethyl-3-3-dimethylaminopropyl carbodiimide hydrochlorid (EDC at 0.2 M) and sulfo N-hydroxysulfosuccinimids (s_NHS at 0.05M) at […] for 420 seconds (s). […] Deactivation was followed adding ethanolamine HCl at […] for 300 s. Finally human IL-2 was added at different concentrations (starting from 100 nM and followed by three-fold dilutions) at […], 600 s association, and 240 s dissociation.
In order to characterize the binding properties of the anti-human IL-2 mAbs the binding to human interleukin-2 was tested with surface plasmon resonance binding assays.

Reference peptide no. 41 = target: T2, Reference peptide no. 41; test: peptide microarray (RepliTope), 15-mers
T2 construct: hIL-2 15-mer, first library, parental Cys replaced by Ser, on microarray; also called peptide 41
T2 peptide: NRWITFSQSIISTLT
Procedure: (§1) Additional incubations are with unrelated antibodies from the same isotype (mouse control IgG2a/lambda and mouse control IgG2a/kappa), and secondary antibodies (anti-mouse IgG (Thermo 84545, label DL650) or anti-mouse IgG (JIR 115-175-072, Label Cy5)) to assess unspecific binding due to the detection antibody. The experiments are performed essentially as described in Maksimov P, et al. 2012, PLoS One 7:e34212. doi:10.1371/journal. pone. 0034212.
(§2) The determination of peptide-antibody binding was performed by RepliTope-analysis where the peptide microarray (triplicate) was incubated with the primary antibody followed by a fluorescently labelled secondary antibody directed against the Fc-part of the primary one. All steps were performed on a TECAN microarray processing station enabling highly reliable and reproducible washing and incubation steps. After performing the incubation steps and subsequent to the final washing steps (to remove the unbound secondary antibodies) the microarrays were dried using a nitrogen stream and scanned in a high resolution microarray scanning system with appropriate wavelength settings. Control incubations were performed with an unrelated antibody having the same isotype to exclude false positive signals.
(§3) The resulting images were analyzed und quantified using spot-recognition software GenePix (Molecular Devices). For each spot, the mean signal intensity was extracted (between 0 and 65535 arbitrary units). For further data evaluation, the MMC2 values were determined. The MMC2 equals the mean value of all three instances on the microarray. Except the coefficient of variation (CV)—standard-deviation divided by the mean value—is larger 0.5, in this case the mean of the two closest values (MC2) is assigned to MMC2.

Reference peptide no. 52 [1] = target: T3, Reference peptide no. 52; test: peptide microarray (RepliTope), 15-mers
T3 construct: second library: peptide 11 with F(62) and Y(65) to Ala; also called peptide 52
T3 peptide: YKNPKLTRMLTAKFA
Procedure: as §1, §2, §3

Reference peptide no. 60 = target: T4, Reference peptide no. 60; test: peptide microarray (RepliTope), 15-mers
T4 construct: second library: peptide 24 with its first Leu replaced by Ala as printed (by count this is L90, not L92); also called peptide 60
T4 peptide: ANLAQSKNFHLRPRD
Procedure: as §1, §2, §3

Reference peptide no. 35 = target: T5, Reference peptide no. 35; test: peptide microarray (RepliTope), 15-mers
T5 construct: hIL-2 15-mer, first library, parental Cys replaced by Ser, on microarray; also called peptide 35
T5 peptide: FMSEYADETATIVEF
Procedure: as §1, §2, §3

Reference peptide no. 13 [2] = target: T6, Reference peptide no. 13; test: peptide microarray (RepliTope), 15-mers
T6 construct: hIL-2 15-mer, first library, on microarray; also called peptide 13
T6 peptide: TRMLTFKFYMPKKAT
Procedure: as §1, §2, §3

Reference peptide no. 26 [3] = target: T7, Reference peptide no. 26; test: peptide microarray (RepliTope), 15-mers
T7 construct: hIL-2 15-mer, first library, on microarray; also called peptide 26
T7 peptide: KNFHLRPRDLISNIN
Procedure: as §1, §2, §3

Reference peptide no. 59 = target: T8, Reference peptide no. 59; test: peptide microarray (RepliTope), 15-mers
T8 construct: second library: peptide 23 with L(92) to Ala; also called peptide 59
T8 peptide: EEVLNAAQSKNFHLR
Procedure: as §1, §2, §3

Reference peptide no. 22 = target: T9, Reference peptide no. 22; test: peptide microarray (RepliTope)
T9 construct: hIL-2 15-mer, first library, on microarray; also called peptide 22
T9 peptide: KPLEEVLNLAQSKNF
Procedure: as §1, §2, §3

Reference peptide no. 12 = target: T10, Reference peptide no. 12; test: peptide microarray (RepliTope)
T10 construct: hIL-2 15-mer, first library, on microarray; also called peptide 12
T10 peptide: PKLTRMLTFKFYMPK
Procedure: as §1, §2, §3

Reference peptide no. 10 [4] = target: T11, Reference peptide no. 10; test: peptide microarray (RepliTope)
T11 construct: hIL-2 15-mer, first library, on microarray; also called peptide 10
T11 peptide: INNYKNPKLTRMLTF
Procedure: as §1, §2, §3

Reference peptide no. 24 = target: T12, Reference peptide no. 24; test: peptide microarray (RepliTope)
T12 construct: hIL-2 15-mer, first library, on microarray; also called peptide 24
T12 peptide: LNLAQSKNFHLRPRD
Procedure: as §1, §2, §3

Reference peptide no. 11 [5] = target: T13, Reference peptide no. 11; test: peptide microarray (RepliTope)
T13 construct: hIL-2 15-mer, first library, on microarray; also called peptide 11
T13 peptide: YKNPKLTRMLTFKFY
Procedure: as §1, §2, §3

Reference peptide no. 13 [6] = target: T6, Reference peptide no. 13; test: peptide microarray (RepliTope)
Procedure: as §1, §2, §3

Reference peptide no. 26 [7] = target: T7, Reference peptide no. 26; test: peptide microarray (RepliTope)
Procedure: as §1, §2, §3

Reference peptide no. 25 = target: T14, Reference peptide no. 25; test: peptide microarray (RepliTope)
T14 construct: hIL-2 15-mer, first library, on microarray; also called peptide 25
T14 peptide: AQSKNFHLRPRDLIS
Procedure: as §1, §2, §3

Reference peptide no. 23 = target: T15, Reference peptide no. 23; test: peptide microarray (RepliTope)
T15 construct: hIL-2 15-mer, first library, on microarray; also called peptide 23
T15 peptide: EEVLNLAQSKNFHLR
Procedure: as §1, §2, §3

murine IL-2 = target: T16, murine IL-2 (mouse, UniProt P04351 21-169); test: SPR, NARA1 amine-coupled to a GLM chip, mouse IL-2 as analyte at 10, 3.3, 1.1, 0.37, 0.123 and 0.041 nM
T16 construct: also called mouse IL-2; mIL-2
T16 sequence (looked up): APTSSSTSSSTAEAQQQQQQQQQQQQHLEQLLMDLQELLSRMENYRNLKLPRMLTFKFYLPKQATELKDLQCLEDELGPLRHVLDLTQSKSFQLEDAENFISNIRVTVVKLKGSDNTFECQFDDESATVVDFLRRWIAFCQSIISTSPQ

Reference peptide no. 10 [8] = target: T11, Reference peptide no. 10; test: peptide microarray (RepliTope), Ala mutagenesis set
Reference peptide no. 52 [9] = target: T3, Reference peptide no. 52; test: as above
Reference peptide no. 11 [10] = target: T13, Reference peptide no. 11; test: as above

T1 sequence (P60568 21-153 limits assumed): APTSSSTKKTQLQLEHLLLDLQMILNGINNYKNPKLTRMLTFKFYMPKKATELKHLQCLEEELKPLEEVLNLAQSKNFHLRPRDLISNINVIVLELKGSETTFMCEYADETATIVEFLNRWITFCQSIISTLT

B1: NARA1 (antibody, mouse IgG2a, kappa, V domains shown)
VH: QVQLQQSGAELVRPGTSVKVSCKASGYAFTNYLIEWVKQRPGQGLEWIGVINPGSGGTNYNEKFKGKATLTADKSSSTAYMQLSSLTSDDSAVYFCARWRGDGYYAYFDVWGAGTTVTVSS
VL: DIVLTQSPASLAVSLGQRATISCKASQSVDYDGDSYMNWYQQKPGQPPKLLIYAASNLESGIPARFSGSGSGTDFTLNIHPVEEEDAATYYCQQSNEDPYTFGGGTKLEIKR
notes: Mouse monoclonal from hybridoma; Isotype controls used were mouse IgG2a; also called anti-IL2 (NARA1) antibody; monoclonal antibody NARA1
Human interleukin-2
  Kd: 1.2 nM
  koff: 2.08e-05 s⁻¹
Reference peptide no. 41
  binding result: no binding
Reference peptide no. 52 [1]
  binding result: no binding
Reference peptide no. 60
  binding result: no binding
Reference peptide no. 35
  binding result: no binding
Reference peptide no. 13 [2]
  binding result: no binding
Reference peptide no. 26 [3]
  binding result: no binding
Reference peptide no. 59
  binding result: no binding
Reference peptide no. 22
  signal intensity after subtraction of control signal: 0 AU
Reference peptide no. 12
  signal intensity after subtraction of control signal: 1130 AU
Reference peptide no. 10 [4]
  signal intensity after subtraction of control signal: 20900 AU
Reference peptide no. 24
  signal intensity after subtraction of control signal: 282 AU
Reference peptide no. 11 [5]
  signal intensity after subtraction of control signal: 1190 AU
Reference peptide no. 13 [6]
  signal intensity after subtraction of control signal: 224 AU
Reference peptide no. 26 [7]
  signal intensity after subtraction of control signal: 0 AU
Reference peptide no. 25
  signal intensity after subtraction of control signal: 0 AU
Reference peptide no. 23
  signal intensity after subtraction of control signal: 32 AU
Murine IL-2
  binding result: no binding (tested: 10 nM)
Reference peptide no. 10 [8]
  signal intensity after subtraction of control signal: 20900 AU
Reference peptide no. 52 [9]
  signal intensity after subtraction of control signal: 238 AU
Reference peptide no. 11 [10]
  signal intensity after subtraction of control signal: 1190 AU
